Data published in US20240182544A1.
Several values for one entry are separate records, joined by “and”; a condition that tells them apart may be missing. Equal values may be shown once.

Molecular target: Death Receptor 5 (UniProt O14763)
Assay: cell-based or functional assay

| Substance | IC50 of cell killing (cell viability, CellTiter-Glo, 24 h), CAPAN-1 cells | IC50 of cell killing (cell viability, CellTiter-Glo, 24 h), Colo 205 cells | IC50 of cell killing (cell viability, CellTiter-Glo, 24 h), H2122 cells | IC50 of cell killing (cell viability, CellTiter-Glo, 24 h), H2228 cells | IC50 of cell killing (cell viability, CellTiter-Glo, 24 h), HT29 cells | IC50 of cell killing (cell viability, CellTiter-Glo, 24 h), HTC15 cells | IC50 of cell killing (cell viability, CellTiter-Glo, 24 h), MDA-BD231 cells | IC50 of cell killing (cell viability, CellTiter-Glo, 24 h), SW948 cells | other results |
| --- | --- | --- | --- | --- | --- | --- | --- | --- | --- |
| Tigatuzumab Multabody (from UniProt P02792 1-175; P02792 1-175) | 0.0026 µg/mL and 0.0011 nM | 0.00085 µg/mL and 0.00037 nM | 0.00014 µg/mL and 5.9e-05 nM | 0.015 µg/mL and 0.0067 nM | 0.0084 µg/mL and 0.0037 nM | 0.002 µg/mL and 0.00087 nM | 0.00052 nM and 0.0012 µg/mL | 0.00037 µg/mL and 0.00016 nM | Fold-change of killing IC50, MB vs parental IgG, mass basis, CAPAN-1 cells: > 5000 fold; Fold-change of killing IC50, MB vs parental IgG, mass basis, Colo 205 cells: > 11800 fold; Fold-change of killing IC50, MB vs parental IgG, mass basis, H2122 cells: 2940 fold; Fold-change of killing IC50, MB vs parental IgG, mass basis, H2228 cells: > 651 fold; Fold-change of killing IC50, MB vs parental IgG, mass basis, HT29 cells: > 1190 fold; Fold-change of killing IC50, MB vs parental IgG, mass basis, HTC15 cells: > 5000 fold; Fold-change of killing IC50, MB vs parental IgG, mass basis, MDA-BD231 cells: > 8400 fold; Fold-change of killing IC50, MB vs parental IgG, mass basis, SW948 cells: > 27000 fold; Fold-change of killing IC50, MB vs parental IgG, molar basis, CAPAN-1 cells: > 59300 fold; Fold-change of killing IC50, MB vs parental IgG, molar basis, Colo 205 cells: > 181000 fold; Fold-change of killing IC50, MB vs parental IgG, molar basis, H2122 cells: 45600 fold; Fold-change of killing IC50, MB vs parental IgG, molar basis, H2228 cells: > 10000 fold; Fold-change of killing IC50, MB vs parental IgG, molar basis, HT29 cells: > 18300 fold; Fold-change of killing IC50, MB vs parental IgG, molar basis, HTC15 cells: > 77000 fold; Fold-change of killing IC50, MB vs parental IgG, molar basis, MDA-BD231 cells: > 129000 fold; Fold-change of killing IC50, MB vs parental IgG, molar basis, SW948 cells: > 416000 fold |
| Conatumumab Multabody (from UniProt P02792 91-175) | 0.002 µg/mL and 0.00087 nM | 0.16 pM | 0.00015 µg/mL and 6.4e-05 nM | 0.031 µg/mL and 0.013 nM | 0.0024 µg/mL and 0.001 nM | 0.00053 µg/mL and 0.00023 nM | 0.00071 µg/mL and 0.00031 nM | 0.16 pM | – |
